# According to the supplement of paper PMC12338614:
# ± gives the uncertainty stated by the source.
# B1: library; numbered along this chain (parent)
# chain: MEVVDPQQLGMFTEGELMSVGMDTFIHRIDSTEVIYQPRRKRAKLIGKYLMGDLLGEGSYGKVKEVLDSETLCRRAVKILKKKKLRRIPNGEANVKKEIQLLRRLRHKNVIQLVDVLYNEEKQKMYMVMEYCVCGMQEMLDSVPEKRFPVCQAHGYFCQLIDGLEYLHSQGIVHKDIKPGNLLLTTGGTLKISDLGVAEALHPFAADDTCRTSQGSPAFQPPEIANGLDTFSGFKVDIWSAGVTLYNITTGLYPFEGDNIYKLFENIGKGSYAIPGDCGPPLSDLLKGMLEYEPAKRFSIRQIRQHSWFRKKHPPAEAPVPIPPSPDTKDRWRSMTVVPYLEDLHGADEDEDLFDIEDDIIYTQDFTVPGQVPEEEASHNGQRRGLPKAVCMNGTEAAQLSTKSRAEGRAPNPARKACSASSKIRRLSACKQQ
# Variants of: B1
# Assay: STK11 functional score (HeLa growth suppression), rescaled enrichment; synonymous median = 1, nonsense median = 0 (normalised score)
# Conditions: with HeLa; variant type: missense
# In short: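 The functional score takes the post/pre-selection log ratio, corrects it to wild type, rescales it to synonymous and nonsense medians, and merges it over codons and replicate transfections, with error from bootstrapping. Counts came from tiled gDNA amplicons sequenced on NextSeq (~2 million reads per tile). The libraries were POPCode codon-randomised, codon-optimised STK11 integrated by Bxb1 at an AAVS1 landing pad in HeLa, three regions with three transfections each.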
row,Variant,STK11 functional score
1,E265I,1.42 ± 0.31
2,A273P,1.4 ± 0.28
3,C158V,0.897 ± 0.2
4,Q364I,1.26 ± 0.47
5,T209A,1.2 ± 0.51
6,K44S,1.4 ± 0.21
7,I322R,1.11 ± 0.2
8,V34D,0.585 ± 0.37
9,G91N,1.38 ± 0.089
10,L17Y,1.6 ± 0.25
11,T249I,0.664 ± 0.24
12,Y292R,1.22 ± 0.21
13,Q364E,0.253 ± 0.34
14,L113W,0.222 ± 0.11
15,V236S,1.4 ± 0.37
16,G394P,1.52 ± 0.25
17,D194G,-0.36 ± 0.095
18,I172A,1.02 ± 0.78
19,T189W,1.2 ± 0.13
20,Y36G,1.55 ± 0.11
21,D348W,1.58 ± 0.25
22,D348Q,1.54 ± 0.22
23,A206I,1.46 ± 0.47
24,T71M,0.604 ± 0.21

row,Variant,STK11 functional score
1,R211A,1.28 ± 0.14
2,A206T,0.479 ± 0.13
3,F354S,1.34 ± 0.26
4,V320Y,1.55 ± 0.23
5,G370A,1.21 ± 0.58
6,S240W,-0.126 ± 0.094
7,K64Y,1.39 ± 0.39
8,G91C,0.164 ± 0.23
9,T212E,1.65 ± 0.34
10,Q371F,1.12 ± 0.24
11,W239R,0.273 ± 0.15
12,F366Y,1.24 ± 0.65
13,E138D,1.1 ± 0.21
14,G187P,1.49 ± 0.12
15,R415S,1.5 ± 0.27
16,S299C,1.3 ± 0.2
17,F354V,1.3 ± 0.21
18,C391H,1.46 ± 0.11
19,K41A,1.25 ± 0.34
20,I224L,1.28 ± 0.19
21,E374Q,0.822 ± 0.78
22,Q399W,1.43 ± 0.38
23,E407K,1.55 ± 0.37
24,I177S,-0.0448 ± 0.12

row,Variant,STK11 functional score
1,N181A,0.0629 ± 0.078
2,L9N,1.67 ± 0.14
3,T186S,1.1 ± 0.12
4,D330C,1.33 ± 0.33
5,K41H,1.44 ± 0.13
6,F264I,0.658 ± 0.51
7,T13P,1.58 ± 0.38
8,K403A,1.6 ± 0.27
9,H168W,0.545 ± 0.6
10,V66D,0.0679 ± 0.17
11,I248Q,1.25 ± 0.49
12,I361E,1.52 ± 0.26
13,C210M,0.956 ± 0.14
14,P323I,1.52 ± 0.14
15,E199N,1.54 ± 0.19
16,K431S,1.64 ± 0.14
17,V4P,1.03 ± 0.13
18,S69E,1.23 ± 0.091
19,V95Y,1.55 ± 0.17
20,Q123G,0.98 ± 0.27
21,L55I,1.39 ± 0.34
22,A398S,1.16 ± 0.25
23,K81D,1.28 ± 0.56
24,T24C,1.22 ± 0.12

row,Variant,STK11 functional score
1,S271W,0.443 ± 0.6
2,P387S,1.41 ± 0.23
3,G52F,1.63 ± 0.18
4,I322G,-0.0839 ± 0.11
5,E145F,0.968 ± 0.087
6,R39A,1.12 ± 0.42
7,K178M,0.202 ± 0.1
8,A417R,1.6 ± 0.28
9,P339Q,1.52 ± 0.16
10,K269L,1.45 ± 0.2
11,P149L,0.561 ± 0.1
12,Y340A,1.56 ± 0.17
13,L117G,0.823 ± 0.22
14,P315K,1.56 ± 0.27
15,N266P,1.09 ± 0.12
16,F354E,1.45 ± 0.27
17,W239M,0.267 ± 0.092
18,G163Y,-0.0827 ± 0.069
19,L140S,-0.236 ± 0.08
20,Q170P,0.0405 ± 0.082
21,A273H,0.901 ± 0.3
22,V63N,1.14 ± 0.097
23,D327R,1.61 ± 0.16
24,K82T,1.56 ± 0.17

row,Variant,STK11 functional score
1,P369L,1.13 ± 0.25
2,E130P,0.365 ± 0.27
3,L85Y,0.234 ± 0.093
4,F219Y,1.29 ± 0.54
5,D277V,1.23 ± 0.17
6,F231C,1.33 ± 0.24
7,V133E,0.588 ± 0.28
8,P179M,0.544 ± 0.13
9,R28W,1.18 ± 0.092
10,L101Y,1.21 ± 0.079
11,E130F,0.993 ± 0.35
12,T250G,0.834 ± 0.095
13,P280G,1.46 ± 0.23
14,A318F,1.6 ± 0.22
15,N226E,0.0384 ± 0.15
16,T230W,1.17 ± 0.48
17,A414Y,1.58 ± 0.12
18,K416T,1.37 ± 0.65
19,L400N,1.63 ± 0.31
20,G15P,1.66 ± 0.28
21,I35L,1.11 ± 0.1
22,S401F,1.49 ± 0.24
23,C418L,1.46 ± 0.13
24,E70C,1.39 ± 0.52

row,Variant,STK11 functional score
1,K81G,1.04 ± 0.1
2,L386W,1.13 ± 0.25
3,P324V,1.58 ± 0.14
4,D194C,-0.228 ± 0.094
5,A389H,1.51 ± 0.12
6,L55Q,1.59 ± 0.43
7,E165Q,0.995 ± 0.58
8,G242A,0.823 ± 0.13
9,G408F,1.24 ± 0.52
10,P6A,0.942 ± 0.1
11,T363A,0.828 ± 0.21
12,L263D,0.549 ± 0.14
13,M129I,0.692 ± 0.11
14,I192C,1.43 ± 0.27
15,K416P,1.61 ± 0.21
16,H107W,0.165 ± 0.27
17,A76F,0.0284 ± 0.091
18,K62L,1.35 ± 0.21
19,R211L,1.21 ± 0.19
20,K82L,1.49 ± 0.16
21,E376G,1.18 ± 0.25
22,G47A,1.4 ± 0.58
23,Q159M,1.14 ± 0.096
24,R40P,1.17 ± 0.38

row,Variant,STK11 functional score
1,K287T,1.25 ± 0.2
2,K191C,0.0918 ± 0.27
3,L386S,1.45 ± 0.24
4,V368A,1.36 ± 0.22
5,F366A,0.753 ± 0.65
6,G155A,1.27 ± 0.57
7,Q170W,1.17 ± 0.12
8,L105I,1.57 ± 0.36
9,S401I,1.49 ± 0.15
10,L105P,0.588 ± 0.23
11,Y156Q,0.148 ± 0.081
12,E265Q,0.752 ± 0.43
13,L344S,1.43 ± 0.18
14,D365M,1.59 ± 0.14
15,D258V,1.39 ± 0.37
16,A43F,1.23 ± 0.18
17,G47V,0.431 ± 0.69
18,E145W,1.41 ± 0.34
19,W239H,0.199 ± 0.11
20,N90I,0.781 ± 0.2
21,P275F,0.767 ± 0.26
22,D176H,-0.154 ± 0.14
23,K97Q,0.688 ± 0.72
